The values that follow come from US20150125491A1 (AURIGENE DISCOVERY TECHNOLOGIES, published 2015).

Experiment [1] concerns the target PD-1 on mouse splenocytes (mouse) (UniProt Q02242). The experiment can be described thus: cell-based or functional assay.
Experiment [2] deals with PD-L1 expressed on MDA-MB-231 cells (UniProt Q9NZQ7 19-290, limits assumed). Briefly: cell-based or functional assay.

Bridges are numbered along the chain shown (N, C = ends). Where no end group is shown, it is not given here. [ ]: non-standard residue; d: D form. Ahx = NCCCCCC(=O)O

PD-L1 expressed on MDA-MB-231 cells, sequence (Q9NZQ7 19-290 limits assumed): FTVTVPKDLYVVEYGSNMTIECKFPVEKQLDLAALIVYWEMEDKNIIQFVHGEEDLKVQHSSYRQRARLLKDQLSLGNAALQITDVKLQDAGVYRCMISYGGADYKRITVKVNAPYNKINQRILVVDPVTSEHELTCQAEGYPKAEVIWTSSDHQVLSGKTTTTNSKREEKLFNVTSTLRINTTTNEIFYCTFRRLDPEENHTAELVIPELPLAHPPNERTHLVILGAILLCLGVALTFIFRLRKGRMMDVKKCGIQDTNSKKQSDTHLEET
PD-1 on mouse splenocytes (mouse), sequence (Q02242 25-288): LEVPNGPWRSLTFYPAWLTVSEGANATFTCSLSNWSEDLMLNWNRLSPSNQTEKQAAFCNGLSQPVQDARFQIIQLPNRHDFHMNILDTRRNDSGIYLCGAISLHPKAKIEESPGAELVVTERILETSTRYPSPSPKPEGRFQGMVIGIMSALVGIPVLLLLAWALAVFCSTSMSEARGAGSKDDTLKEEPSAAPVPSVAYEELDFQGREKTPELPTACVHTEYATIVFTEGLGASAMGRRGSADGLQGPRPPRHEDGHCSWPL

As for “PD-L1 expressed on MDA-MB-231 cells (from UniProt Q9NZQ7 19-290) (ligand)”, the % Splenocyte proliferation (Background proliferation: Splenocytes+anti-CD3/CD28+PDL or Tumor) in experiment [1] was 13%.

With cyclo([Ahx]SETSKSFQ) [Compound 17], in experiment [2], the “% Splenocyte proliferation” value amounted to 42% and the Fold induction amounted to 3.2 fold.

Turning to SETSKVF (not fully specified; also: cyclic, bridge and C-terminus not given here) [Compound 7], in experiment [2], the “% Splenocyte proliferation” value stood at 52% and the Fold induction amounted to 4 fold.

B1: Compound 2 (peptide)
peptide: SETSKSF-NH2
modifications: lactam 2-5; N-terminus assumed
SMILES: C[C@@H](O)[C@@H]1NC(=O)[C@@H](NC(=O)[C@@H](N)CO)CCC(=O)NCCCC[C@@H](C(=O)N[C@@H](CO)C(=O)N[C@@H](Cc2ccccc2)C(N)=O)NC(=O)[C@H](CO)NC1=O
For B1, in experiment [2], the “% Splenocyte proliferation” value is 57% and the Fold induction was determined as 4.3 fold.

Regarding IEMSKSQ (not fully specified; also: cyclic, bridge and C-terminus not given here) [Compound 11], in experiment [2], the “% Splenocyte proliferation” value is 54% and the Fold induction was 4.2 fold.

B2: Compound 14 (peptide)
peptide: SNTSESFQ
modifications: cyclised between the N-terminal amino group of Ser and the alpha-carboxyl of the C-terminal Glu, which was attached to Rink amide resin through its gamma-carboxyl (gives Gln)
B2: in experiment [2], the “% Splenocyte proliferation” value came to 55% and the Fold induction is 4.2 fold.

Consider IEMSKVQ-OH (lactam 2-5) [Compound 12], for which, in experiment [2], the “% Splenocyte proliferation” value came out at 39% and the Fold induction was 3 fold.

Take SETSKSFQ (not fully specified; also: cyclic, bridge and C-terminus not given here) [Compound 16]: in experiment [2], the “% Splenocyte proliferation” value was 36% and the Fold induction is 2.8 fold.

B3: Compound 15 (peptide)
peptide: cyclo(SNTSESF[Ahx]Q)
SMILES: C[C@@H](O)[C@@H]1NC(=O)[C@H](CC(N)=O)NC(=O)[C@H](CO)NC(=O)[C@H](CCC(N)=O)NC(=O)CCCCCNC(=O)[C@H](Cc2ccccc2)NC(=O)[C@H](CO)NC(=O)[C@H](CCC(=O)O)NC(=O)[C@H](CO)NC1=O
With B3, in experiment [2], the “% Splenocyte proliferation” value amounted to 53% and the Fold induction was 4 fold.

For SETSKSI (not fully specified; also: cyclic, bridge and C-terminus not given here) [Compound 5], in experiment [2], the “% Splenocyte proliferation” value worked out at 42% and the Fold induction was 3.2 fold.

Consider EETSKSF (not fully specified; also: cyclic, bridge and C-terminus not given here) [Compound 4], for which, in experiment [2], the “% Splenocyte proliferation” value was found to be 36% and the Fold induction is 2.8 fold.

As to SKTSESF-NH2 (lactam 2-5) [Compound 1], in experiment [2], the “% Splenocyte proliferation” value stood at 60% and the Fold induction came out at 4.6 fold.

Take IETSKSF (not fully specified; also: cyclic, bridge and C-terminus not given here) [Compound 6]: in experiment [2], the “% Splenocyte proliferation” value turned out to be 55% and the Fold induction was 4.2 fold.

Turning to SETSKSFE (not fully specified; also: cyclic, bridge and C-terminus not given here) [Compound 20], in experiment [2], the “% Splenocyte proliferation” value came out at 36% and the Fold induction was determined as 2.8 fold.
